Patent publication US20210009673A1, “METHODS FOR REGULATING BREAST CANCERS” (priority 2018, published 2021)

Columns and labels:
Akt = experiment: phosphorylation of Akt in PTN-stimulated HUVS cells; format: cell-based, human; details: PTN 50 ng/ml, 5 minutes, elevated at 20 minutes
Experimental: FIG. 11: FIG. 11 illustrates: human umbilical vein stromal cells not stimulated or stimulated with 50 ng/ml of PTN for 2, 5, 10 or 20 minutes were used to prepare cell lysates that were analyzed in Western blots probed with anti-phospho threonine 308 Akt (panel A), anti-phospho serine 473 Akt (panel B), anti-phospho-serine 9 GSK3β (panel C), anti-phospho-serine 33, 37 and […] β-catenin (panel D) or anti-actin antibodies (panel E). Akt was immunoprecipitated from those lysates using anti-Akt antibodies, incubated with a fusion peptide containing the 20 N-terminal amino acids of GSK3β and analyzed in Western-blots probed using anti-phospho-serine 9 GSK3β antibodies (panel F).
To pursue this pathway of nuclear import of β-catenin, HUVS cells were stimulated with PTN (50 ng/ml), lysed, and analyzed in Western blots probed with anti-phosphothreonine 308 Akt or anti-phosphoserine 473 Akt antibodies (FIG. 11, panel A and B). […]
The association of adaptor proteins that associate with specific phosphorylated sites in activated EGFR are responsible for the activation of phosphatidyl-inositol 3-kinase (PI3K). […] The cells were stimulated with PTN for 2, 5, 10, and 20 minutes, cell lysates were prepared, and the lysates were analyzed in Western blots probed with anti-phospho-Akt (Ser473), anti-phospho-GSKβ (Ser9), and anti-phospho-β-catenin (Thr42) antibodies. […]

β-catenin [1] = experiment: ubiquitination of β-catenin in HUVS cells (Rad23 capture); format: cell-based, human; details: 15 and 30 minutes after stimulation with PTN
Experimental: FIG. 12: FIG. 12 illustrates: human umbilical vein stromal cells not stimulated (lane 1) or stimulated with 50 ng/ml of PTN for 15 (lane 2), or 30 minutes (lane 3) were used to prepare cell lysates that were incubated with Rad23-conjugated agarose beads to pull-down ubiquitinated proteins and analyzed in Western-blots probed with anti-β-catenin antibodies (upper panel) and reprobed with anti-ubiquitin antibodies (lower panel). Cells pre-incubated with LY294002 were stimulated with PTN for 15 minutes (lane 4). Cells pre-incubated with lactacystin were stimulated with PTN for 15 minutes (lane 5).
Human umbilical vein stromal cells were lysed in a buffer prepared with 50 mM Tris, pH 7.2, 150 mM NaCl pH 7.5, 1% NP40, 0.25% sodium deoxicholate, Complete EDTA-free Protease Inhibitor Cocktail and 2 mM sodium orthovanadate. […] The beads were washed 4 times with lysis buffer and analyzed using Western blots.
β-catenin is rapidly degraded through the ubiquitin proteasome proteolytic pathway, thereby setting steady state levels of β-catenin by balancing its degradation with new synthesis of this key regulatory protein. […] Proteins captured with Rad23 Sepharose were eluted and analyzed in Western blots probed with anti-β-catenin antibodies (FIG. 12, upper panel) and the blots were reprobed with anti-ubiquitin antibodies (FIG. 12, lower panel). […]

β-catenin [2] = experiment: PTN-stimulated tyrosine phosphorylation of β-catenin in COS-7 cells (immunoprecipitation, Western blot); format: cell-based
Experimental: FIG. 1: FIG. 1 illustrates in (A) PTN stimulation of tyrosine phosphorylation of β-catenin in cells that express RPTPβ/ζ and ALK. COS7 cells transiently expressing ALK and RPTPβ/ζ were stimulated with 10 ng PTN/ml. Cell lysates were prepared and used to immunoprecipitate β-catenin. The immunoprecipitates were analyzed in Western blots probed with anti-phosphotyrosine antibodies. Lane 1, cells transfected with ALK that were not stimulated with PTN. Lane 2, cells transfected with ALK stimulated with PTN. Lane 3, cells transfected with empty vector not stimulated with PTN. Lane 4, cells transfected with empty vector stimulated with PTN. […] The immunoprecipitates were analyzed in Western blots probed with anti-phosphotyrosine antibodies. […] Cell lysates were used to immunoprecipitate β-catenin and the immunoprecipitates were analyzed in Western blots probed with anti-phospho-tyrosine antibodies and reprobed with anti-β-catenin antibodies. […] MCF-7 cells that stably express EGFR/RPTPβ/ζ not transfected with ALK were analyzed as above. […] Lysates of MCF-7 cells and lysates of MCF-7 cells stimulated with EGF were used to immunoprecipitate β-catenin and the immunoprecipitates were analyzed in Western blots probed with anti-phospho-tyrosine antibodies and separately with anti-β-catenin antibodies. […]

B1: pleiotrophin (protein, UniProt P21246 33-168, looked up)
Pleiotrophin: GKKEKPEKKVKKSDCGEWQWSVCVPTSGDCGLGTREGTRTGAECKQTMKTQRCKIPCNWKKQFGAECKYQFQAWGECDLNTALKTRTGSLKRALHNAECQKTVTISKPCGKLTKPKPQAESKKKKKEGKKQEKMLD
phosphorylation of Akt threonine 308 and serine 473 (Akt): rapid increase
ubiquitinated β-catenin (β-catenin [1]): decreased sharply
tyrosine phosphorylation of β-catenin (β-catenin [2]; COS-7 cells expressing RPTPβ/ζ alone): failed to stimulate
increased tyrosine phosphorylation of β-catenin (β-catenin [2]; COS-7 cells expressing both ALK and RPTPβ/ζ, 10 ng PTN/ml): about 3 fold
